For orientation: stoichiometry N means a count of units in the complex or per binding partner.

Several values for one entry are separate records, joined by “and”; a condition that tells them apart may be missing. Equal values may be shown once.

The results in this text go back to article PMC2910095 (Biochemistry, 2010).

The target of data set [1] is purified recombinant VacA p55 domain (Helicobacter pylori strain 60190). In words: SEC. Background: In gel filtration, larger molecules generally elute earlier.
For data set [2], the target named is recombinant refolded VacA p33 domain (Helicobacter pylori strain 60190). The data set can be described thus: SEC.
Data set [3] deals with p33/p55 complex (86 kDa, monomeric complex) (Helicobacter pylori strain 60190). In words: negative-stain electron microscopy.
Data set [4] deals with the molecule itself. The data set can be described thus: negative-stain electron microscopy.

Take “recombinant refolded VacA p33 domain (domain or fragment)”: the results for the stoichiometry N in data set [1] and in data set [2] were 1 and 3, respectively.
Take “p33/p55 complex (86 kDa, monomeric complex)”: in data set [3], the stoichiometry N was 6 and 7 and 12.

B1: p88 VacA purified from H. pylori broth culture supernatant (natural protein)
chain: AFFTTVIIPAIVGGIATGTAVGTVSGLLGWGLKQAEEANKTPDKPDKVWRIQAGKGFNEFPNKEYDLYKSLLSSKIDGGWDWGNAATHYWIKGGQWNKLEVDMKDAVGTYKLSGLRNFTGGDLDVNMQKATLRLGQFNGNSFTSYKDSADRTTRVDFNAKNILIDNFLEINNRVGSGAGRKASSTVLTLQASEGITSSKNAEISLYDGATLNLASNSVKLNGNVWMGRLQYVGAYLAPSYSTINTSKVTGEVNFNHLTVGDHNAAQAGIIASNKTHIGTLDLWQSAGLNIIAPPEGGYKDKPNNTPSQSGAKNDKQESSQNNSNTQVINPPNSTQKTEVQPTQVIDGPFAGGKDTVVNIDRINTKADGTIKVGGFKASLTTNAAHLNIGKGGVNLSNQASGRTLLVENLTGNITVDGPLRVNNQVGGYALAGSSANFEFKAGVDTKNGTATFNNDISLGRFVNLKVDAHTANFKGIDTGNGGFNTLDFSGVTNKVNINKLITASTNVAVKNFNINELIVKTNGVSVGEYTHFSEDIGSQSRINTVRLETGTRSIFSGGVKFKSGEKLVIDEFYYSPWNYFDARNIKNVEITRKFASSTPENPWGTSKLMFNNLTLGQNAVMDYSQFSNLTIQGDFINNQGTINYLVRGGKVATLNVGNAAAMMFNNDIDSATGFYKPLIKINSAQDLIKNTEHVLLKAKIIGYGNVSTGTNGISNVNLEEQFKERLALYNNNNRMDTCVVRNTDDIKACGMAIGNQSMVNNPDNYKYLIGKAWKNIGISKTANGSKISVYYLGNSTPTENGGNTTNLPTNTTNNARFASYA
Take B1: the “stoichiometry N” value in data set [4] was 6 and 7 and 12 to 14 (2×).
